From patent US20160290999A1 (SYSMEX, published 2016)
No end group written: not given here.

Columns and labels:
[1] = target: T1, Human serum albumin (human, UniProt P02768 25-609); assay: fluorescence titration of TMR-labelled peptide against HSA, Hill fit (Example 2, FIG. 6)
T1 construct: Purchased protein used in solution; In the hydrothermal experiments it is heat-aggregated into an insoluble precipitate; also called HSA
Description: (§1) Each of the resulting mixtures was subjected to measurement with a spectrophotofluorometer [product name: F-7000, manufactured by Hitachi High-Technologies Corporation] and the fluorescence intensity with an excitation wavelength of 540 nm and a fluorescence wavelength of 580 nm (hereinafter, referred to as “fluorescence intensity A”) was measured.

[2] = target: T1, Human serum albumin; assay: fluorescence titration of TMR-labelled peptide against HSA, Hill fit (as in Example 1)
Description: as §1

[3] = target: T1, Human serum albumin; assay: Kd as classified from the fluorescence titration; told in Example 4 of the peptides of samples F and G

B1: TMR-labeled SA21 (peptide)
peptide: DDEWLCGWRPLCIDEILR
modifications: cysteine pairing not given here; also: TMR label, site not given here
notes: The free text was followed; also called TMR-SA21; TMR-labeled SA1
Kd [1]: < 500 µM

B2: TMR-labeled ACTH (1-39) (peptide)
peptide: SYSMEHFRWGKPVGKKRRPVKVYPNAGENESAEAFPLEF
modifications: also: TMR label, site not given here
notes: The free text was followed; also called Adrenocorticotropic hormone (ACTH) (1-39)
Kd [2]: 520 µM

LVAASQAALGL (also: TMR label, site not given here) [TMR-labeled HSA 599-609 fragment]
Kd [3]: ≥ 500 µM
